Target: UKPV, spike on pseudotyped lentivirus, Alpha (SARS-CoV-2 (B.1.1.7, Alpha)) (UniProt P0DTC2)
Test: dot blot

Work on “TTCCGGTTAATTTATGCTCTACCCGTCCACCTACCGGAATTTTTTTTTTTTTTTTTTTTTTTTTTTTTTACGGGTTTGGCGTCGGGCCTGGCGGGGGGATAGTGCGGT [DSA1N5 (T30 linker)]” yielded a Kd of 2.3 pM.

From publication PMC8596624
